Data as given in patent US20160194408A1 (published 2016).
Read-outs that look alike come from different tables or passages of the source. One block for each binder: values may come before it.

Experiments:
[1] = target: T1, human Proprotein Convertase Subtilisin-like/Kexin type 9 (UniProt Q8NBP7 31-692); experiment: PCSK9-LDLR blocking ELISA
[2] = target: T1, human Proprotein Convertase …; experiment: ELISA
Target sequence in this assay (Q8NBP7 31-692): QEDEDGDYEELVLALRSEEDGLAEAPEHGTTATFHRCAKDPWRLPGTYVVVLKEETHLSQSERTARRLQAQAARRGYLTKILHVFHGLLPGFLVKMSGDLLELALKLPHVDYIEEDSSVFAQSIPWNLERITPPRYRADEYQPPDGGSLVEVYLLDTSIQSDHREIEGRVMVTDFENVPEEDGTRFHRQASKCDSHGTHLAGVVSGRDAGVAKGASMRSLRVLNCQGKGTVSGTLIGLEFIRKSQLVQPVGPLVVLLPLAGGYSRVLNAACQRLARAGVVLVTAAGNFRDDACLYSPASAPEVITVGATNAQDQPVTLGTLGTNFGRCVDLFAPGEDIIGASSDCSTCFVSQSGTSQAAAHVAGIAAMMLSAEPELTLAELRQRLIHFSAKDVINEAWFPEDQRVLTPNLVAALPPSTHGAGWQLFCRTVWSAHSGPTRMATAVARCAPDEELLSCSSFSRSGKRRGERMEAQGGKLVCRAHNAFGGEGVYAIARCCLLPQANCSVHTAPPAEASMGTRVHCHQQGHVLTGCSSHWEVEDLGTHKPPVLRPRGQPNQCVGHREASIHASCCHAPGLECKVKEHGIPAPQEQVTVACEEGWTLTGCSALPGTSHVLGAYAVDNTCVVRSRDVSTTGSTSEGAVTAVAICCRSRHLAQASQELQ

[3] = target: T1, human Proprotein Convertase …; experiment: ELISA; remark: listed apart in the source
[4] = target: T1, human Proprotein Convertase …; experiment: PCSK9-LDLR blocking ELISA; remark: listed apart in the source
[5] = target: T1, human Proprotein Convertase …; experiment: ELISA; remark: listed apart in the source
[6] = target: T2, cynomolgus monkey PCSK9 (cynomolgus monkey, UniProt A0A7N9D9N8 150-747); experiment: ELISA
T2 chain: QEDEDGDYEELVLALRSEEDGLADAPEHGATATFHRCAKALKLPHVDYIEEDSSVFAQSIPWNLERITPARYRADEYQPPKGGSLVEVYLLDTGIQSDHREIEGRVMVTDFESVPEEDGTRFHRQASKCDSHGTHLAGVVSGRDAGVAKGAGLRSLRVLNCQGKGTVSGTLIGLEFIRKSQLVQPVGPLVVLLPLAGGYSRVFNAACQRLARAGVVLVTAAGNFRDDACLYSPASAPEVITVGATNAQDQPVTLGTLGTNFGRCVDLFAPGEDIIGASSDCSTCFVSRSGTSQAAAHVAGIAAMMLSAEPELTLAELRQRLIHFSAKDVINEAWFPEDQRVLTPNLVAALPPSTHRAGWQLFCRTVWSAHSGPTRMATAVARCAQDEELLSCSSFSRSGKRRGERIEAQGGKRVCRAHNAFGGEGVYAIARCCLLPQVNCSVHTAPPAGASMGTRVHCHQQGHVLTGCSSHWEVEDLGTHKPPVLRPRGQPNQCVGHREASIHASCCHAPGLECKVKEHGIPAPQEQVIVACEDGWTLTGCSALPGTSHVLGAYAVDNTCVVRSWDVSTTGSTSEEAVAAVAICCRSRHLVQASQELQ

B1: Ab9 (antibody, V domains shown)
VH: QSVEESGGRLVTPGTPLTLTCTVSGIDLSSYAMGWVRQAPGKGLEYIGIIVSYGPTYYASWAKGRFTISKTSTTVDLKITSPTAEDTATYFCARDLDANSSGYYGCFNIWGQGTLVTVSS
VL: AVVLTQTPASVSAAVGGTVTIKCQASQSISTALAWYQQKPGQPPKLLIYAASPLASGVSSRFKSSGSGTEFTLTISDLECADAATYYCQSYYGSSNIAFGGGTELEILR
- IC50 [1]: 1.59 nM

B2: Ab4 (antibody, V domains shown)
VH: QSVEESGGRLVTPGTPLTLTCTVSGIDLSSYAMIWVRQAPEKGLEYIGYIGGIDSTYYASWAKGRFTISKTSTTVDLKMTSPTTEDTATYFCGRWSGTSGYNTIWGPGTLVTVSS
VL: DVVMTQTPASVEAAVGGTVTIKCQASQSIYSNLAWYQQKPGQPPKLLIYGASNLASGVSSRFKGSRSGTEYTLTISDLECADAATYYCQCTGGGDSGNTFGGGTEVVVKR
- EC50 [2]: 0.0843 nM

B3: Ab2 (antibody, V domains shown)
VH: QSVEESGGRLVTPGTPLTLTCTVSGFSLSSYAMSWVRQAPGKGLEWIGIIDAIDNTYYASWAKGRFTISKTSTTVDLKMTSLTTGDTATYFCARASILGYSIATGFNIWGPGTLVTVSS
VL: AYDMTQTPASVEVAVGGTVTIKCQASQSISSHLAWYQQKSGQPPKLLIYRASTLESGVSSRFKGSGSGTEFTLTISDLECADAATYYCQQGYGVSDVDNGFGGGTEVVVKR
- EC50 [2]: 0.0936 nM

B4: Ab3 (antibody, V domains shown)
VH: QSVEESGGRLVTPGGSLTLTCTASGFSLSSYYMSWVRQAPGKGLEWIGIIYPSGSTYYASWAKGRFTISKTSTTVDLKITSPTVEDTATYFCARGGAYATLNLWGPGTLVTVSS
VL: AVLTQTPSPVSAAVGGTVTISCQSSQSVYHNNLLSWYQQKPGQPPKLLIYDASKLTSGVSSRFSGSGSGTQFTLTISGVQCDDAATYYCLGGYDDDADNGFGGGTEVVVKR
- EC50 [2]: 0.105 nM

B8: Ab16 (antibody, V domains shown)
VH: QEQLVESGGGLVQPEGSLTLTCTASGFSFSSDYWICWVRQAPGKGLEWIGCIRDGGGSYYANWAKGRLTISMTSSTTVGLKMTSLTAADTATYFCASDINDGWLGQFNLWGPGTLVTVSS
VL: DIVMTQTPASVEAAVGGTVTIKCQASQSISSYLAWYQQKPGQPPKLLIYRASTLASGVPSRFSGSGSGTEFTLTISDLECADAATYYCQSYYSVTTVTYGNTFGGGTEVVVKR
- EC50 [5]: 0.286 nM
- EC50 [6]: 0.31 nM

B9: Ab1 (antibody, V domains shown)
VH: QSVEESGGRLVTPGTPLTLTCTVSGFSLSSYWMTWVRQAPGKGLEYIGIISSSGSTYYATWAKGRFTISKTSSTTVDLEITSPTTEDTATYFCARDSAFSSGLEFNIWGPGTLVTVSS
VL: AYDLTQTPASVEVAVGGTVTIKCQASQSVYSNWLSWYQQKPGQPPKLLIYDASDLASGVPSRFKGSGSGTQFTLTISGVQCDDAATYYCQQGQSSSDIDNTFGGGTEVVVKR
- EC50 [2]: 0.117 nM

The remaining lines, values ahead:

- EC50 [3]: 0.943 nM
B5: Ab19 (antibody, V domains shown)
VH: EVQLVESGGGLVQPGGSLRLSCAASGIDLSSYAMGWVRQAPGKGLEYIGIIVSYGPTYYASWAKGRFTISRDNSKNTVYLQMNSLRAEDTATYFCARDLDAQSSGYYGAFNIWGQGTLVTVSS
VL: DIQMTQSPSTLSASVGDRVTITCQASQSISTALAWYQQKPGKAPKLLIYAASPLASGVPSRFSGSGSGTEFTLTISSLQPDDFATYYCQSYYGSSNIAFGGGTKVEIKR

- IC50 [4]: 3.3 nM
B6: Ab22 (antibody, V domains shown)
VH: EVQLVESGGGLVQPGGSLRLSCAASGFSLSSYAMNWVRQAPGKGLEWIGAIRSSGATFFASSVNGRFTISRDNSKNTVYLQMNSLRAEDTAVYYCARDTNDGWYINRLDLWGQGTLVTVSS
VL: AVLTQSPSTLSASVGDRVTITCQSSKSVYSNYLSWFQQKPGKAPKFLIYKASTLASGVPSRFSGSGSGTEFTLTISSLQPDDFATYYCAGGDTNIADNAFGGGTKVEIKR

- EC50 [5]: 0.301 nM
- EC50 [6]: 0.278 nM
B7: Ab17 (antibody, V domains shown)
VH: QEQLEESGGDLVKPEGSLTLTCTASGFSFSSSYWICWVRQAPGKGLEWIGCIRPGSADYYASWAKGRFTISRASSSTVTLQMTSLTAADTATYFCASDINDGWLGQFNLWGPGTLVTVSS
VL: DVVMTQTPASVEAAVGGTVTIKCQASLSIADYLAWYLQKPGQPPKLLIYRASTLASGVPSRFKGSGSGTEYTLTISDLECADAATYYCQSYYSVTTNTYGNTFGGGTEVVVKR
